Results on 4 molecules are retold here after patent US20220010020A1 (Five Prime, published 2022).

The target in assay [1] is T1, FGFR2-IIIb (fibroblast growth factor receptor 2 IIIb splice form) (human, UniProt P21802 22-377).
T1 construct: also called FGFR2b; KGFR
T1 chain: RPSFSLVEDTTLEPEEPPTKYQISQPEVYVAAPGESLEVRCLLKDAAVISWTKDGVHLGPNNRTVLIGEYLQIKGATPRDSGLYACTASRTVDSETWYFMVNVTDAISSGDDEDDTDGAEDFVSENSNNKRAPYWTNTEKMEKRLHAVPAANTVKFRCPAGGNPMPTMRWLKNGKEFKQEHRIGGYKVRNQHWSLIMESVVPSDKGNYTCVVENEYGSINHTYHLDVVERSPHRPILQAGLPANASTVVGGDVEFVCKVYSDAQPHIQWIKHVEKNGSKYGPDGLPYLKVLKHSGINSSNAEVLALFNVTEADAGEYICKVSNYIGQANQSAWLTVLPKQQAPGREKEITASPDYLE
Put plainly: ELISA potency of forced oxidation samples. On the technique in general: ELISA stands for enzyme-linked immunosorbent assay.

Assay [2] concerns the target T1, FGFR2-IIIb (fibroblast growth factor …). The experiment in a line: blocking ELISA (potency), forced oxidation study.
For assay [3] the target is unchanged. Put plainly: blocking ELISA (potency), forced oxidation study; blocked ligand not named.

B1: anti-FGFR2-IIIb antibody (afucosylated, humanized IgG1 monoclonal antibody), control sample incubated without hydrogen peroxide (antibody, V domains shown)
VH: QVQLVQSGAEVKKPGSSVKVSCKASGYIFTTYNVHWVRQAPGQGLEWIGSIYPDNGDTSYNQNFKGRATITADKSTSTAYMELSSLRSEDTAVYYCARGDFAYWGQGTLVTVSS
VL: DIQMTQSPSSLSASVGDRVTITCKASQGVSNDVAWYQQKPGKAPKLLIYSASYRYTGVPSRFSGSGSGTDFTFTISSLQPEDIATYYCQQHSTTPYTFGQGTKLEIKR
notes: also called αFGFR2b; Sample 1
For B1, the “Potency By ELISA” value in assay [1] was determined as 84. Moreover, in assay [2], the “% Potency (Assay 1), against Reference” value came out at 79% and the “% Potency (Assay 2), against Reference” value was found to be 89%. The molecule further showed an IC50 in assay [3] of 0.0272 mg/L.

B2: anti-FGFR2-IIIb antibody incubated with 1.0% hydrogen peroxide overnight at room temperature (force oxidized) (antibody, human IgG1, kappa, V domains shown)
VH: QVQLVQSGAEVKKPGSSVKVSCKASGYIFTTYNVHWVRQAPGQGLEWIGSIYPDNGDTSYNQNFKGRATITADKSTSTAYMELSSLRSEDTAVYYCARGDFAYWGQGTLVTVSS
VL: DIQMTQSPSSLSASVGDRVTITCKASQGVSNDVAWYQQKPGKAPKLLIYSASYRYTGVPSRFSGSGSGTDFTFTISSLQPEDIATYYCQQHSTTPYTFGQGTKLEIKR
notes: Same antibody as m1 after peroxide treatment; also called +1.0% H2O2; 1.0% H2O2
For B2, in assay [1], the “Potency By ELISA” value is 83. For the same molecule, in assay [2], the “% Potency (Assay 1), against Reference” value is 73% and the “% Potency (Assay 2), against Reference” value was determined as 93%. This molecule registered an IC50 in assay [3] of 0.0257 mg/L.

B3: anti-FGFR2-IIIb antibody incubated with 0.1% hydrogen peroxide overnight at room temperature (force oxidized) (antibody, human IgG1, kappa, V domains shown)
VH: QVQLVQSGAEVKKPGSSVKVSCKASGYIFTTYNVHWVRQAPGQGLEWIGSIYPDNGDTSYNQNFKGRATITADKSTSTAYMELSSLRSEDTAVYYCARGDFAYWGQGTLVTVSS
VL: DIQMTQSPSSLSASVGDRVTITCKASQGVSNDVAWYQQKPGKAPKLLIYSASYRYTGVPSRFSGSGSGTDFTFTISSLQPEDIATYYCQQHSTTPYTFGQGTKLEIKR
notes: Same antibody as m1 after peroxide treatment; also called +0.1% H2O2; 0.1% H2O2
For the molecule B3, in assay [1], the “Potency By ELISA” value stood at 89. In addition, in assay [2], the “% Potency (Assay 1), against Reference” value was found to be 78% and the “% Potency (Assay 2), against Reference” value came out at 100%. For the same molecule, in assay [3], the IC50 amounted to 0.0259 mg/L.

B4: anti-FGFR2-IIIb antibody incubated with 0.01% hydrogen peroxide overnight at room temperature (force oxidized) (antibody, human IgG1, kappa, V domains shown)
VH: QVQLVQSGAEVKKPGSSVKVSCKASGYIFTTYNVHWVRQAPGQGLEWIGSIYPDNGDTSYNQNFKGRATITADKSTSTAYMELSSLRSEDTAVYYCARGDFAYWGQGTLVTVSS
VL: DIQMTQSPSSLSASVGDRVTITCKASQGVSNDVAWYQQKPGKAPKLLIYSASYRYTGVPSRFSGSGSGTDFTFTISSLQPEDIATYYCQQHSTTPYTFGQGTKLEIKR
notes: Same antibody as m1 after peroxide treatment; also called +0.01% H2O2; 0.01% H2O2
Regarding B4, the “Potency By ELISA” value in assay [1] was 102. Also, in assay [2], the “% Potency (Assay 1), against Reference” value is 98% and the “% Potency (Assay 2), against Reference” value came out at 106%. The molecule also returned an IC50 in assay [3] of 0.0208 mg/L.

The term IC50 denotes the concentration that inhibits the measured activity by half. A high value points to weaker potency in that assay.
